Fewer inactive variants are shown than the library holds.

The subject of one data set is biotinyl-Phe-oxazolone. The data set can be described thus: self-aminoacylation, catalytic enhancement (BFO) (fold over background); higher = more active; k-Seq, kA / k0A0; sequences stand for … in GGGAAUGGAUCCACAUCUACGAAUUC…UUCACUGCAGACUUGACGAAGCUG
The procedure, abridged:
(§1)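 Mutagenized RNA pools with a 21-nt variable region (0.43 μM) were reacted with each biotinyl-aminoacyl-oxazolone at 2–1250 μM for 90 minutes at room temperature, in 50 μL HEPES/NaCl/KCl/MgCl2/CaCl2 buffer containing 5% acetonitrile at pH 6.9–7.0. RNA captured on streptavidin was quantified by triplicate qPCR and by Illumina sequencing. The fraction reacted for each sequence was fit to a pseudo-first-order model with bootstrapping, and catalytic enhancement is the median kA divided by the uncatalyzed rate, taken as the low-activity peak of a bimodal Gaussian fit.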
As for “AAGUUUCCUAAUGGUCGCAAG [Fam3.1 aminoacylation ribozyme variant]”, the self-aminoacylation was 2.62.
As for “AAGUUUGCUUAUAGUCGCAAA [Fam3.1 aminoacylation ribozyme variant]”, the self-aminoacylation was found to be 2.38.
Same read-out and setting: then “AAGCUUGCUAAUAGUUGCAAG [Fam3.1 aminoacylation ribozyme variant]”, with 2.19; and “CUACGUCAAACGAUCGGUCUG [Fam1A.1 aminoacylation ribozyme variant]”, with 3.76.
Still for that read-out and setting: then “UUUACCCUGGUCGUCGAGUGA [Fam2.1 aminoacylation ribozyme variant]”, with 5.7; and “AUUCAACUAGGUCAUCGUGUG [Fam2.2 aminoacylation ribozyme variant]”, with 5.52; and “AAGUUUGCUGACAGUCGCAAG [Fam3.1 aminoacylation ribozyme variant]”, with 2.12.
In the case of “AUUCACCUAGUUCAUCGGGAG [Fam2.2 aminoacylation ribozyme variant]”, the self-aminoacylation is 2.23.
Still for that read-out and setting: next, “ACGUUUGCUAAUAGUCGCAGG [Fam3.1 aminoacylation ribozyme variant]”: 3.87; “AUUCAGCUAGGUCAUCGGAUG [Fam2.2 aminoacylation ribozyme variant]”: 2.91.
Still for that read-out and setting: then “AUUCACCUAGGUCAUCGUGCG [Fam2.2 aminoacylation ribozyme variant]”, with 5.13; and “AAGCUUCCUAAUAGUCGCAAG [Fam3.1 aminoacylation ribozyme variant]”, with 2.32; and “CUAAUUCAAAUAAUCGGUCUG [Fam1A.1 aminoacylation ribozyme variant]”, with 2.58.
On the same count and under the same terms, next, “CCUCACUUCAAGCAAUCGGAC [Fam1B.1 aminoacylation ribozyme variant]”: 2.16.
As to “AAGUUUUCCAAUAGUCGCAAG [Fam3.1 aminoacylation ribozyme variant]”, the self-aminoacylation is 2.43.
The same measure, in the same setting: then “CUACUUCAGACAUUCGGUCUG [Fam1A.1 aminoacylation ribozyme variant]”, with 6.22; and “AAGUUUCCUAAUAGUUGCAAG [Fam3.1 aminoacylation ribozyme variant]”, with 2.63.
On the same count and under the same terms, next, “AUUAGCCUCGUCAUCGAGUGA [Fam2.1 aminoacylation ribozyme variant]”: 2.19; “AGGUUUGCUUAUAGUCGCAAG [Fam3.1 aminoacylation ribozyme variant]”: 2.89; “AAGUUUUCUCAUAGUCGCAAG [Fam3.1 aminoacylation ribozyme variant]”: 3.59.
For the sequence “CCACACUUCAAACAACCGGUC [Fam1B.1 aminoacylation ribozyme variant]”, the self-aminoacylation turned out to be 2.26.
Still for that read-out and setting: then “UAGUUUGCUCAUAGUCGCAAG [Fam3.1 aminoacylation ribozyme variant]”, with 2.67; and “AAGGUUGCUAAUAGUCGCACG [Fam3.1 aminoacylation ribozyme variant]”, with 2.39.
The same measure, in the same setting: then “AUUCACCUAGCUCGUCGGGUG [Fam2.2 aminoacylation ribozyme variant]”, with 4.07.
Still for that read-out and setting: then “AAUACCCUGGUCAUCGAGUUA [Fam2.1 aminoacylation ribozyme variant]”, with 2.17; and “CUACGUCAAACAAUUGGUCUG [Fam1A.1 aminoacylation ribozyme variant]”, with 2.06.
Take “AAGUUUACUAAUAGUCGAAAG [Fam3.1 aminoacylation ribozyme variant]”: the self-aminoacylation was 2.51.
On the same count and under the same terms, next, “CCACUUCAAACAAUCGAUCUG [Fam1A.1 aminoacylation ribozyme variant]”: 4.61.
“CUACUUGAAACACUCGGUCUG [Fam1A.1 aminoacylation ribozyme variant]”: the self-aminoacylation was 3.53.
For “CCACACUUCAAGAAUUCGGUC [Fam1B.1 aminoacylation ribozyme variant]”, the self-aminoacylation was determined as 7.52.
With “CUUCAUCAAACAAUCGGUCUG [Fam1A.1 aminoacylation ribozyme variant]”, the self-aminoacylation was determined as 2.05.
Same read-out and setting: next, “AUUACCCUGGUCAGCGAUUGA [Fam2.1 aminoacylation ribozyme variant]”: 2.52; “CCCCACUACAAGCAAUCGGUC [Fam1B.1 aminoacylation ribozyme variant]”: 2.24; “AUUCACCUACGUCAUCGGCUG [Fam2.2 aminoacylation ribozyme variant]”: 2.24.
Turning to “AAGUUCGGUAAUAGUCGCAAG [Fam3.1 aminoacylation ribozyme variant]”, the self-aminoacylation stood at 3.24.
Consider “AAGUUUGCUAACAGCCGCAAG [Fam3.1 aminoacylation ribozyme variant]”, for which the self-aminoacylation is 3.09.
On the same count and under the same terms, then “AUUACCCUGGUCAUCGUGUGG [Fam2.1 aminoacylation ribozyme variant]”, with 2.9; and “AUUACCCUGGUCGUCGAGUGG [Fam2.1 aminoacylation ribozyme variant]”, with 2.7.
Same read-out and setting: then “CAGUUUCCUAAUAGUCGCAAG [Fam3.1 aminoacylation ribozyme variant]”, with 2.17; and “AGUACCCUGGUCAUCGAGUUA [Fam2.1 aminoacylation ribozyme variant]”, with 2.58; and “AAGUUUUCUAAUAGUCGCAAU [Fam3.1 aminoacylation ribozyme variant]”, with 2.37.
As to “ACGUUUGCUAAUAGUCGGAAG [Fam3.1 aminoacylation ribozyme variant]”, the self-aminoacylation stood at 3.98.
The same measure, in the same setting: next, “AUUCACCUAGGUGAUCGGGUC [Fam2.2 aminoacylation ribozyme variant]”: 2.84; “CUAAAUCAAACAAUCGGUCUG [Fam1A.1 aminoacylation ribozyme variant]”: 3.19.
For the sequence “AUUCACCUACUUCAUCGGGUG [Fam2.2 aminoacylation ribozyme variant]”, the self-aminoacylation came out at 3.44.
Consider “AUUAGCCUGGUCAUCGAGUGC [Fam2.1 aminoacylation ribozyme variant]”, for which the self-aminoacylation is 2.04.
Consider “AAGUUUGCUAAUGGUCGCAAC [Fam3.1 aminoacylation ribozyme variant]”, for which the self-aminoacylation is 6.25.
On the same count and under the same terms, then “UAGUUGGCUAAUAGUCGCAAG [Fam3.1 aminoacylation ribozyme variant]”, with 2.38; and “AUUCAACUAGGUCGUCGGGUG [Fam2.2 aminoacylation ribozyme variant]”, with 6.9; and “ACACACUUCAAGCGAUCGGUC [Fam1B.1 aminoacylation ribozyme variant]”, with 2.18.
On the same count and under the same terms, next, “AGGUUUUCUAAUAGUCGCAAG [Fam3.1 aminoacylation ribozyme variant]”: 2.83.
As for “CCCCACUUCAAGCAAUAGGUC [Fam1B.1 aminoacylation ribozyme variant]”, the self-aminoacylation was 2.02.
As to “AUUAACCUAGGUCAUCGUGUG [Fam2.2 aminoacylation ribozyme variant]”, the self-aminoacylation was 3.17.
As for “AUUCACCUAGGUCCUCGUGUG [Fam2.2 aminoacylation ribozyme variant]”, the self-aminoacylation was determined as 5.79.
Same read-out and setting: then “CUACUUCAAACAAUCUGUCUG [Fam1A.1 aminoacylation ribozyme variant]”, with 3.23; and “AUUCACCUAGUUCAUCGGGUU [Fam2.2 aminoacylation ribozyme variant]”, with 5.74; and “AAGUUCGCUAAUAGUCUCAAG [Fam3.1 aminoacylation ribozyme variant]”, with 2.72.
Still for that read-out and setting: then “CUACAUCAAACAAGCGGUCUG [Fam1A.1 aminoacylation ribozyme variant]”, with 4.11.
Consider “AAGGUUGCCAAUAGUCGCAAG [Fam3.1 aminoacylation ribozyme variant]”, for which the self-aminoacylation came out at 2.4.

Another data set concerns biotinyl-Trp-oxazolone. The data set can be described thus: self-aminoacylation, catalytic enhancement (BWO) (fold over background); higher = more active; k-Seq, kA / k0A0; sequences stand for … in GGGAAUGGAUCCACAUCUACGAAUUC…UUCACUGCAGACUUGACGAAGCUG
The procedure, abridged: as §1
“AAUCACCUAGGUCAUCAGGUG [Fam2.2 aminoacylation ribozyme variant]”: the self-aminoacylation is 2.18.
As for “CGACUUCAAACAACCGGUCUG [Fam1A.1 aminoacylation ribozyme variant]”, the self-aminoacylation turned out to be 2.13.
In the case of “GUACUUUAAACAAUCGGUCUG [Fam1A.1 aminoacylation ribozyme variant]”, the self-aminoacylation was 2.08.
Same read-out and setting: then “AUUACGCUGGUCAUCGAGCGA [Fam2.1 aminoacylation ribozyme variant]”, with 2.16; and “AAGAUUGCUAAUAGCCGCAAG [Fam3.1 aminoacylation ribozyme variant]”, with 2.47.
Still for that read-out and setting: then “AAGUUGGCUAAUAGUCUCAAG [Fam3.1 aminoacylation ribozyme variant]”, with 2.27; and “AUUCACCUAGGUUAUCAGGUG [Fam2.2 aminoacylation ribozyme variant]”, with 2.12.
As to “AAGUUUGCGAAUAUUCGCAAG [Fam3.1 aminoacylation ribozyme variant]”, the self-aminoacylation amounted to 2.71.
On the same count and under the same terms, next, “AAUCACCUAGGUCAUAGGGUG [Fam2.2 aminoacylation ribozyme variant]”: 2.15; “AAGUUUGCUAGUAGUCGCAAA [Fam3.1 aminoacylation ribozyme variant]”: 2.13.
Consider “AAGUAUGCUAAUAGUCGCACG [Fam3.1 aminoacylation ribozyme variant]”, for which the self-aminoacylation turned out to be 2.03.

Source of the values: the supplement of paper PMC9233669.
